These results are taken from publication PMC5547898.

This assay deals with Myc-tagged metabotropic glutamate receptor 5 (Myc-mGluR5) (UniProt P41594). Briefly: co-IP.
Sequence of UniProt P41594 (P41594 21-1212): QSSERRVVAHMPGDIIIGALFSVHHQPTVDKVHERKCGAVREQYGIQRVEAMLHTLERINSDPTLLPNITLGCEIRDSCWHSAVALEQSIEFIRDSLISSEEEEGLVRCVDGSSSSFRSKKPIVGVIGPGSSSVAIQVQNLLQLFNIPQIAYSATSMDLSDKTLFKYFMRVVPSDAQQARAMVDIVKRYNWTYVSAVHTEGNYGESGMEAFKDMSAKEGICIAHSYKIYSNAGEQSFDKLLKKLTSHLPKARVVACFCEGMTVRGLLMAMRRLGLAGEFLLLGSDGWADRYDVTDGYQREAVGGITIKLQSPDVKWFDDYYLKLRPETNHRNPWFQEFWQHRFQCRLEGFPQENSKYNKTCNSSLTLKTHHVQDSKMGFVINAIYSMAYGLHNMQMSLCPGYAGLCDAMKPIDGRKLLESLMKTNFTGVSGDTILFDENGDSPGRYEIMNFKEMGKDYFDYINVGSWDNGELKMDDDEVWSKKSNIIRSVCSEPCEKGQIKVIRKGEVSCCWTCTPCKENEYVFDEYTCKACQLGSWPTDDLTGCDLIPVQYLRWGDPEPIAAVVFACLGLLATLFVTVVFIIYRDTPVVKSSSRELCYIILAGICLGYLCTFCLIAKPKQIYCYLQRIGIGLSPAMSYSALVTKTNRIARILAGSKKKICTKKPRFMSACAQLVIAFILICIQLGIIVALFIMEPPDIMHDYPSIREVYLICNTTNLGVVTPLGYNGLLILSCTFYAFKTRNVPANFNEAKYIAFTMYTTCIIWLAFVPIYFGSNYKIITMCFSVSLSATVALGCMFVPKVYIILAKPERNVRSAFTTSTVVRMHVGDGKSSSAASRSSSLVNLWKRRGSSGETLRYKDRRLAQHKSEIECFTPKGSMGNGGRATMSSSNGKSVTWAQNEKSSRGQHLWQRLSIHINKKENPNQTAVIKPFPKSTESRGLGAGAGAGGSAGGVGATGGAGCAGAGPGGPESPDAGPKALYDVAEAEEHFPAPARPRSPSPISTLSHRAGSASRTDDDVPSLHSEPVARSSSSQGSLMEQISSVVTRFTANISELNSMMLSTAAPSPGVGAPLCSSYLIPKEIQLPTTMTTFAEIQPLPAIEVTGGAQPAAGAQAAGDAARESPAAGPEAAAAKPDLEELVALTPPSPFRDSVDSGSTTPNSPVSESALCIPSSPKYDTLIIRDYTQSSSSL

Turning to “cellular prion protein (PrP^C) (from UniProt P04156 23-230) (natural protein)”, the fold increase of the co-immunoprecipitate with Aβo against without Aβo is greater than 2 fold.
